Reference: US20080145903A1, “PROCESSES OF PRODUCING FERMENTATION PRODUCTS” (priority 2006, published 2008)

System: RED STAR yeast
Assay: Conventional simultaneous saccharification fermentation (SSF) of liquefied corn mash, ethanol yield by weight loss and HPLC
Type: cell-based
Conditions: conventional SSF, 70 hours
Experimental: Liquefied corn mash was used to evaluate the effect of adding salicylic acid (SA) to a known enzyme dosage of
The performance of these enzymes was compared to controls without salicylic acid addition. The experimental set-up used is described in table below.
5.5 g of RED STAR™ yeast was rehydrated in 100 mL distilled water and incubated at 32° C. for 30 minutes prior to the beginning of fermentation. Approximately 50 million cells/g DS of yeast were added to each of the fermentations.
The corn mash was thawed to room temperature. Urea and Penicillin were added to a final concentration of […] and 3 mg/L respectively. Small-scale (˜4 g) fermentations were carried out in 15 mL polypropylene tubes with five replicates for each experimental condition. The tubes were prepared by drilling a 1/32 inch (1.5 mm) hole and the empty tubes were then weighed before liquefied corn mash was added. The tubes were weighed again after mash was added to determine the exact weight of mash in each tube. This weight was used to calculate the enzyme dosage necessary as follows:
Enzyme was added according to dosage described in table above and 100 μl of rehydrated yeast were added to each tube to begin fermentation. Fermentation progress was followed by weighing the tubes over time for approximately 70 hours. Tubes were vortexed briefly before each weighing. […]

B1: Aspergillus niger GA: Aspergillus niger G1 glucoamylase disclosed in Boel et al., 1984, EMBO J. 3 (5): 1097-1102 (protein, UniProt P69328 25-640, looked up)
Glucoamylase: ATLDSWLSNEATVARTAILNNIGADGAWVSGADSGIVVASPSTDNPDYFYTWTRDSGLVLKTLVDLFRNGDTSLLSTIENYISAQAIVQGISNPSGDLSSGAGLGEPKFNVDETAYTGSWGRPQRDGPALRATAMIGFGQWLLDNGYTSTATDIVWPLVRNDLSYVAQYWNQTGYDLWEEVNGSSFFTIAVQHRALVEGSAFATAVGSSCSWCDSQAPEILCYLQSFWTGSFILANFDSSRSGKDANTLLGSIHTFDPEAACDDSTFQPCSPRALANHKEVVDSFRSIYTLNDGLSDSEAVAVGRYPEDTYYNGNPWFLCTLAAAEQLYDALYQWDKQGSLEVTDVSLDFFKALYSDAATGTYSSSSSTYSSIVDAVKTFADGFVSIVETHAASNGSMSEQYDKSDGEQLSARDLTWSYAALLTANNRRNSVVPASWGETSASSVPGTCAATSAIGTYSSVTVTSWPSIVATGGTTTTATPTGSGSVTSTSKTTATASKTSTSTSSTSCTTPTAVAVTFDLTATTTYGENIYLVGSISQLGDWETSDGIALSADKYTSSDPLWYVTVTLPAGESFEYKFIRIESDDSVEWESDPNREYTVPQACGTSTATVTDTWR
Ethanol yield after 70 hours fermentation determined by HPLC, With SA (SA dose 5.0 mM/gDS): 117.67
Ethanol yield after 70 hours fermentation determined by HPLC, without SA (no SA): 113.74
